Laboratory results taken from PMC4825978, “A Hox Transcription Factor Collective Binds a Highly Conserved Distal-less cis-Regulatory Module to Generate Robust Transcriptional Outcomes”.

Tests used:
[1] = biological target: Abd-A;Exd51A (ExdN51A);Hth (in heterodimer) (Drosophila melanogaster?;Drosophila …, UniProt P29555;P40427;O46339 261-590;1-376;1-487, |N291A|); assay: EMSA; Abd-A 37.5-300 nM with 200 nM ExdN51A/Hth; significant cooperative complex; Native PAGE EMSA, probe 0.36 uM, triplicate; buffer, salt, pH and temperature not given (as previously described). Further probes (single/paired sites, Hox point mutants; percent bound) only in S4 and S5 Figs, not in the material, number of rows unknown; conditions: protein: recombinant;recombinant;recombinant; tags: His;;His; copies: 1;1;1
[2] = biological target: Abd-A;Exd (in Exd/Hth heterodimer);Hth (in heterodimer) (Drosophila melanogaster?;Drosophila …, UniProt P29555;P40427;O46339 261-590;1-376;1-487, ||); assay: EMSA; Abd-A 37.5-300 nM with 75 nM Exd/Hth; highly cooperative, third slower complex; Native PAGE EMSA, probe 0.36 uM, triplicate; buffer, salt, pH and temperature not given (as previously described). Further probes (single/paired sites, Hox point mutants; percent bound) only in S4 and S5 Figs, not in the material, number of rows unknown; conditions: protein: recombinant;recombinant;recombinant; tags: His;untagged;His; copies: 1;1;1
[3] = biological target: T1, Exd51A (ExdN51A);Hth (in heterodimer) (Drosophila melanogaster?;Drosophila …, UniProt P40427;O46339 1-376;1-487, N291A|); assay: EMSA; 200 nM heterodimer, no Abd-A; no significant binding; Native PAGE EMSA, probe 0.36 uM, triplicate; buffer, salt, pH and temperature not given (as previously described). Further probes (single/paired sites, Hox point mutants; percent bound) only in S4 and S5 Figs, not in the material, number of rows unknown; conditions: protein: recombinant;recombinant; tags: ;His; copies: 1;1
T1 sequence 1: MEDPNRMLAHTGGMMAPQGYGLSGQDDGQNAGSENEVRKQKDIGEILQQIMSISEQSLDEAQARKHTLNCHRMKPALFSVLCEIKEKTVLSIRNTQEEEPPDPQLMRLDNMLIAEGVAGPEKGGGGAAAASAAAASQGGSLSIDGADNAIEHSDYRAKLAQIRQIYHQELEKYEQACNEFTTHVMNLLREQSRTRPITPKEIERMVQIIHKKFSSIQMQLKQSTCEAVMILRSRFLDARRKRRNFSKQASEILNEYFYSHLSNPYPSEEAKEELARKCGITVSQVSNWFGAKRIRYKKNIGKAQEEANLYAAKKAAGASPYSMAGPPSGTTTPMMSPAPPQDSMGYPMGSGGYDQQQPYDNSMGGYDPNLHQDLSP
T1 sequence 2: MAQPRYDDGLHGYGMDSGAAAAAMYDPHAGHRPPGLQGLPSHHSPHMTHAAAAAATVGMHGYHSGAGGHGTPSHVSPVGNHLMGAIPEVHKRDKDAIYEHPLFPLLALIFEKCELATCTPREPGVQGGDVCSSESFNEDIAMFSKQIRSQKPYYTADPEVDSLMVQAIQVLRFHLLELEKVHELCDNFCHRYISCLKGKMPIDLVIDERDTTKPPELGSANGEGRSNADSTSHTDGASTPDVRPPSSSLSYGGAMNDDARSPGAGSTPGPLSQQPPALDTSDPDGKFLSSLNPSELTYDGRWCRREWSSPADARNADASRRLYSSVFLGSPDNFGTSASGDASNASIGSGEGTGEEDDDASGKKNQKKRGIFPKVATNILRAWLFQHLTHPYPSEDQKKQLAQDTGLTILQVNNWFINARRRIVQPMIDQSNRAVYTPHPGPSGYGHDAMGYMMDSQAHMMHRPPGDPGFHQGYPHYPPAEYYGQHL

Chain of Abd-A;Exd (in Exd/Hth heterodimer);Hth (in heterodimer) (P29555 261-590, one chain of several): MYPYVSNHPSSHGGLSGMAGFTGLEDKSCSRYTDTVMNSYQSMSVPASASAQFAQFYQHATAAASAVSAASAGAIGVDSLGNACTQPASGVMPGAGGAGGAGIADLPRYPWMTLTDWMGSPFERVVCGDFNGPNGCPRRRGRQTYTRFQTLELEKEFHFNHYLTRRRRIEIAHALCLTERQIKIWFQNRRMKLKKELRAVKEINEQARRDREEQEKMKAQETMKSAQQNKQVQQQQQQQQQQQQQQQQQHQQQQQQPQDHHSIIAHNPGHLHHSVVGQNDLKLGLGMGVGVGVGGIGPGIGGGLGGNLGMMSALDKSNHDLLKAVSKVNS
Chain of Abd-A;Exd51A (ExdN51A);Hth (in heterodimer) (P29555 261-590, stated change not applied, one chain of several): as the sequence (P29555 261-590, one chain of several) above

B1: DCRE wild-type full-length probe (dsDNA)
DNA 1: GGAATTTATGTCCGACAATATTTGGGAAATTAAATCATTCCCGCGGACAGTTTTATAGTGCGGGCGTGGC
DNA 2: GCCACGCCCGCACTATAAAACTGTCCGCGGGAATGATTTAATTTCCCAAATATTGTCGGACATAAATTCC
binding result [1]: binds
binding result [2]: binds
binding result [3]: no binding
